# Test results reported in patent US20200131249A1, “NOVEL PROTEINS AND USE THEREOF” (EVOLVERITAS KFT., priority 2017, published 2020).
# Where no end group is shown, it is not given here.
# Legend:
# [1] = target: T1, human MASP-1 (Homo sapiens, UniProt P48740); test: KI determination on human MASP-1 catalytic fragment; assay type: biochemical; set-up: key to KI on human MASP-1: N.E.: not effective; details: catalytic fragment; Z-L-Lys-SBzl
# T1 construct: catalytic enzyme fragments containing the three C-terminal domains: CCP1-CCP2-SP
# T1 sequence (P48740 449-699 limits assumed): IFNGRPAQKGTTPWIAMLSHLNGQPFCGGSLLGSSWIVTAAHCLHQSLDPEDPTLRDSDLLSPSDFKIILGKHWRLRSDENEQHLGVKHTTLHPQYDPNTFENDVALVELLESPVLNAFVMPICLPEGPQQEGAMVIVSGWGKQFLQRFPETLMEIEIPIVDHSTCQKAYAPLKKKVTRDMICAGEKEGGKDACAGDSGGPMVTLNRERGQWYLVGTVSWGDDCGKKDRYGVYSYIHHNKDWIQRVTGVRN
# T1 sequence (P48740 298-448 partner limits assumed): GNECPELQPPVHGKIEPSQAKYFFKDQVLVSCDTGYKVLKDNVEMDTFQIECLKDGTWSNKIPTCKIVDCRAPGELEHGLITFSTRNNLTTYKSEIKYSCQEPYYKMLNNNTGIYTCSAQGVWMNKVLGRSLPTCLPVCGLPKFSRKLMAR
# Method: The inhibition equilibrium constant (KI) of all four inhibitor variants produced was measured on human MASP-2 and rat MASP-2. Additionally, KI values were measured also on human MASP-1 and human MASP-3 to assess the specificity of the inhibitors amongst the MASP enzymes. KI values of the inhibitors on bovine trypsin, a pancreatic model enzyme was also measured.
# For determining the KI of the inhibitors on MASP enzymes we used catalytic enzyme fragments containing the three C-terminal domains: CCP1-CCP2-SP. The synthetic substrate used in the measurements was Z-L-Lys-SBzl hydrochloride (Sigma, C3647), from which a 10 mM stock solution was prepared. The reactions were performed in a volume of 0.2 ml at room temperature in a buffer consisting of 20 mM HEPES; 145 mM NaCl; 5 mM CaCl2; 0.05% Triton-X100. The substrate cleaved by the enzyme entered into a reaction with the 5,5′-Dithiobis(2-nitrobenzoic acid) (DTNB, Ellman's reagent, Sigma—D8130) auxiliary substrate present in the solution in 2-fold excess to Z-L-Lys-SBzl. The release of the chromophore group created in this way was monitored via the change of absorbance at 410 nm using a BioTek Synergy H4 multimode microplate reader.
# A dilution sequence was prepared from the individual inhibitors, the enzyme was added to it, and it was incubated for 2 hours at room temperature. The samples were transferred on a 96-well microtiter plate (Nunc 269620). The reactions were started by adding the mixture of the substrate and the auxiliary substrate to the samples. The concentration of the substrate and the length of the measuring period were chosen so that under the given conditions the enzyme should consume less than 10% of the substrate. In this case we used 250 μM Z-L-Lys-SBzl and 500 μM DTNB in the reactions. In the course of measuring, a method developed for the characterisation of tight-binding inhibitors was used (Empie, 1982). The concentration of the product was measured as a function of reaction time. The slope of the straight line determined for the initial phase of the reaction was normalised with the slope obtained for the uninhibited enzyme reaction, and this value was multiplied with the total enzyme concentration. As a result of this we obtained the free enzyme concentration, which was plotted as a function of the total inhibitor concentration and the Ki value was determined according to the following equation:
# E=y=E0−(E0+x+Ki−(((E0+x+Ki)^2)−4*E0*x)^(½))/2,
# where E is the free (uninhibited) enzyme concentration, and E0 is the total enzyme concentration. The stock concentration of the inhibitors was determined by titration with bovine trypsin of known concentration. The results were calculated as the average of parallel measurements.
# [2] = test system: classical pathway; test: C3 deposition ELISA with diluted rat serum on IgG coated plates; assay type: biochemical; details: final concentrations as high as 50 μM; 50-fold diluted rat serum
# Method: ELISA-based complement classical and alternative pathway activation tests were performed on IgG or lipopolysaccharide (LPS) coated plates, respectively, using diluted individual (not pooled) rat serum. In these tests, inhibitory efficiencies of the protein of SEQ ID NO: 14 and SGMI-2 were compared and C3 deposition was used for quantification of the complement activation.
# 96-well Greiner high binding ELISA plates were coated with 100 μl/well 10 μg/ml IgG (Sigma—12511) dissolved in coating buffer (50 mM sodium-carbonate pH 9.6) overnight at 4° C. Control wells contained coating buffer alone. Wells were blocked for 2 h at 37° C. with 200 μl/well 10 mg/ml bovine serum albumin (BSA) dissolved in 50 mM Tris pH 7.4, 150 mM NaCl, 0.1% Tween-20 buffer. Serial dilutions of the inhibitors were made in 10 mM HEPES pH 7.4, 150 mM NaCl, 5 mM CaCl2, 5 mM MgCl2, 0.1% Tween-20 buffer (serum dilution buffer). Rat serum was thawed on ice and diluted 25-fold in serum dilution buffer. The diluted inhibitor samples were mixed with the 25-fold diluted rat serum in 1:1 volume ratio resulting in 50-fold diluted rat serum-inhibitor samples. The samples were incubated at room temperature for 30 minutes. […] The 490 nm absorbance values were recorded using a PerkinElmer EnSpire multimode plate reader. Four parallels were measured for each data point.
KI on human MASP-1 [1],Substance,inhibition of the classical pathway in rat serum [2]
N.E.,SEQ ID NO: 14: TFPI-D2 variant protein with inhibitor loop PCRAVKR (SEQ ID NO: 4) (KPDFCFLEEDPGPCRAVKRRYFYNNQTKQCERFKYGGCLGNMNNFETLEECKNICEDG; ends and bridges not checked; cysteine pairing not given here),neither the protein of SEQ ID NO: 14 nor SGMI-2 were able to inhibit
N.E.,SGMI-2 (GSGEVTCEPGTTFKDKCNTCRCGSDGKSAVCTKLWCNQ; Synthetic protein of insect origin) [reference compound],neither the protein of SEQ ID NO: 14 nor SGMI-2 were able to inhibit
